The target in experiment [1] is T1, human GIP receptor (hGIPR) (human, UniProt P48546 22-466).
T1 sequence: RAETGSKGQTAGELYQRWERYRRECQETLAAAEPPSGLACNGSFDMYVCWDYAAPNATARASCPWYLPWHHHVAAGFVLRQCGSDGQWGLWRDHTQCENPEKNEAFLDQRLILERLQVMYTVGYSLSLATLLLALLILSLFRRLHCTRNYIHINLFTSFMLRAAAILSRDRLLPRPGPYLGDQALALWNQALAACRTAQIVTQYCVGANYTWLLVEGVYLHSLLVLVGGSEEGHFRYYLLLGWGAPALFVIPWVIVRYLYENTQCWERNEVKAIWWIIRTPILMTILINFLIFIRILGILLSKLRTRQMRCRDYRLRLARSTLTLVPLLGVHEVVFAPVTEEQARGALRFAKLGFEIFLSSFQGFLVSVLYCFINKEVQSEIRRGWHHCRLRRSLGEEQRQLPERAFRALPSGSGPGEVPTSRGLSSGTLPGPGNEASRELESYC
Kind of experiment: cell-based or functional assay.

The target in experiment [2] is T2, human GCG receptor (hGCGR) (human, UniProt P47871 26-477). Put plainly: cell-based or functional assay.
T2 sequence (P47871 other isoform, or with tags, fused parts or gaps limits assumed): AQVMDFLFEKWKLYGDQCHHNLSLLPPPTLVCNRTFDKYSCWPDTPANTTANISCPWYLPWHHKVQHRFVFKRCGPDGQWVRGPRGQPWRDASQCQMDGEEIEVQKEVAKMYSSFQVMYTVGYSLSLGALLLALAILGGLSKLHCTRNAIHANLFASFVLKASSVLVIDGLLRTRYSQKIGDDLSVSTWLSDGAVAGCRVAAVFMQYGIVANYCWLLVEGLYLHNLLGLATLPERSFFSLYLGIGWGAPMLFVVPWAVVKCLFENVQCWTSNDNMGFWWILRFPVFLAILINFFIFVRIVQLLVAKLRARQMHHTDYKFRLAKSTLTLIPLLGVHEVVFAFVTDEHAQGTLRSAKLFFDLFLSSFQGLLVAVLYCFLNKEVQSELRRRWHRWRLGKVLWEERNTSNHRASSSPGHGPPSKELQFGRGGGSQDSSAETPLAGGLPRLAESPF
The target of experiment [3] is T1, human GIP receptor (hGIPR). Put plainly: cell-based or functional assay. This is another data set of the same source.
Experiment [4] addresses T3, human GLP-1 receptor (hGLP-1R) (human, UniProt P43220 24-463). Kind of experiment: cell-based or functional assay.
In experiment [5] the target is T3, human GLP-1 receptor (hGLP-1R). Put plainly: cell-based or functional assay. This is another data set of the same source.
Experiment [6] addresses T2, human GCG receptor (hGCGR). Kind of experiment: radioligand competition binding, SPA, membranes of HEK293 cells overexpressing hGCGR, with bacitracin. The method, then:
(§1) The assays are performed in the presence of bacitracin as a non-specific blocking agent to prevent acylated moieties of test analogs from binding to protein components used in standard assay buffers (e.g., albumin).
(§2) Competition curves are plotted as the percent specific inhibition (y-axis) versus log concentration of compound (x-axis) and analyzed using a four-parameter nonlinear regression fit with variable slope (ABase or Genedata).
For orientation: In a radioligand displacement assay an active substance lowers the binding of a labelled ligand.

The target in experiment [7] is T1, human GIP receptor (hGIPR). Kind of experiment: radioligand competition binding, SPA, membranes of HEK293 cells overexpressing hGIPR, with bacitracin. The method, then:
as §1, §2

For experiment [8], the target named is T3, human GLP-1 receptor (hGLP-1R). Kind of experiment: radioligand competition binding, SPA, membranes of HEK293 cells overexpressing hGLP-1R, with bacitracin. The method, then:
as §1, §2

The target in experiment [9] is T2, human GCG receptor (hGCGR). Put plainly: cell-based or functional assay. The source holds these as a separate data set.
The target of experiment [10] is T1, human GIP receptor (hGIPR). Put plainly: cell-based or functional assay. This is another data set of the same source.

Like-named read-outs stand apart in the source and are kept apart here.

For orientation: Ki means a measure of affinity in units of concentration, obtained from inhibition or displacement. A lower Ki goes with tighter binding.

In experiment [1], “human GIP(1-42)NH2 (from UniProt P09681 52-93) (ligand)” gave a cAMP EC50 (0.1% bovine casein) of 1.08 nM; a cAMP EC50 (0.1% bovine casein, 1.0% human serum albumin) of 0.756 nM; a cAMP Emax (0.1% bovine casein) of 98%.

B1: Example 1 (Incretin Analog 1) (peptide)
peptide: YXQGTXTSDYSILLDXKAQXAFIEYLLEGGPSSGEPPPE
modifications: Aib at 2; αMeF(2F) at 6; Orn (O) at 16; K17 conjugated on the epsilon-amino group with 2-[2-(2-amino-ethoxy)-ethoxy]-acetyl-γE-CO-(CH2)18-CO2H; 4Pal at 20; C-terminal amide (E39-NH2)
notes: Synthetic acylated 39-residue peptide, obtained as TFA salt
Turning to B1, the “cAMP EC50 (0.1% bovine casein)” value in experiment [2] is 1.2 nM; in experiment [3], 0.0513 nM; in experiment [4] it was 0.345 nM. Besides, the “cAMP Emax (0.1% bovine casein)” value in experiment [2] is 101%; in experiment [3], 102%; in experiment [4] it was 106%. Further, the “cAMP EC50 (0.1% bovine casein, 1.0% human serum albumin)” value in experiment [5] was determined as 180 nM. Also, the “cAMP Emax (0.1% bovine casein, 1.0% human serum albumin)” value in experiment [5] was 102%. For the same molecule, the results for the Ki in experiment [6], in [7] and in [8] were 0.629 nM, 0.111 nM and 4.53 nM, respectively.

B2: Example 2 (Incretin Analog 2) (peptide)
peptide: YXQGTXTSDYSIXLDXKAQXAFIEXLLEGGPSSGEPPPS
modifications: Aib at 2; αMeF(2F) at 6; αMeL at 13; Orn (O) at 16; K17 conjugated on the epsilon-amino group with 2-[2-(2-amino-ethoxy)-ethoxy]-acetyl-γE-CO-(CH2)18-CO2H; Iva at 20; αMeY at 25; C-terminal amide (S39-NH2)
notes: Synthetic acylated 39-residue peptide
As to B2, in [3], the “cAMP EC50 (0.1% bovine casein)” value was 0.0256 nM. In [3], the “cAMP Emax (0.1% bovine casein)” value was 101%. Moreover, the “cAMP EC50 (0.1% bovine casein, 1.0% human serum albumin)” value came to 537 nM in experiment [9], 2.91 nM in experiment [10] and 119 nM in experiment [5]. Also, the “cAMP Emax (0.1% bovine casein, 1.0% human serum albumin)” value came to 112% in experiment [9], 99% in [10] and 116% in experiment [5]. In addition, the Ki in experiment [6] stood at 0.95 nM; in experiment [7] it was 0.158 nM; in experiment [8] it was 2.54 nM.

B3: Example 3 (Incretin Analog 3) (peptide)
peptide: YXQGTXTSDXSIXLDXKAQXXFIXXLLEGGPSSGEPPPS
modifications: Aib at 2; αMeF(2F) at 6; 4Pal at 10; αMeL at 13; Orn (O) at 16; K17 conjugated on the epsilon-amino group with 2-[2-(2-amino-ethoxy)-ethoxy]-acetyl-γE-CO-(CH2)18-CO2H; αMeL at 20; Aib at 21; D-glutamic acid (e) at 24; αMeY at 25; C-terminal amide (S39-NH2)
notes: as for B2
As to B3, the “cAMP EC50 (0.1% bovine casein)” value in [2] came out at 2.49 nM; in experiment [3], 0.0306 nM; in experiment [4], 0.451 nM. In addition, the “cAMP Emax (0.1% bovine casein)” value in experiment [2] was determined as 99%; in experiment [3] it was 103%; in experiment [4], 107%. Besides, the “cAMP EC50 (0.1% bovine casein, 1.0% human serum albumin)” value in experiment [9] amounted to 480 nM; in experiment [10] it was 3.72 nM; in experiment [5] it was 114 nM. Moreover, the “cAMP Emax (0.1% bovine casein, 1.0% human serum albumin)” value in experiment [9] was 97%; in experiment [10] it was 105%; in [5], 111%. Moreover, the Ki was 1.73 nM in experiment [6], 0.114 nM in [7] and 3.63 nM in experiment [8].
